The record followed here is PMC2935968 (2010).

The test has as its target T1, CHORDII domain of cress (Arabidopsis thaliana) Rar1 (Arabidopsis thaliana, UniProt Q9SE33 149-221).
T1 chain: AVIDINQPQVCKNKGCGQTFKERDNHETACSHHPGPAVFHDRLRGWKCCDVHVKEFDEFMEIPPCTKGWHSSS
Put plainly: ITC.

B1: N-terminal domain of barley (Hordeum vulgare) Hsp90 (domain or fragment)
chain: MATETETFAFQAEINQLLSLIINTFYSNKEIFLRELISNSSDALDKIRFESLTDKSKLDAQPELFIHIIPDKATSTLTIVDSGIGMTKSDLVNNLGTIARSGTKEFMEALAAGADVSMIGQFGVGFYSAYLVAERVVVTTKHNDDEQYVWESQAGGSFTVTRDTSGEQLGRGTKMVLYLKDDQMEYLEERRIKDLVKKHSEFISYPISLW
As to B1, the Kd (commonly the free concentration of one partner at which half of the binding sites on the other are occupied at equilibrium, for simple one-to-one binding) is 22.3 µM. This lies in the double-digit micromolar range.
